According to the supplement of paper PMC12042874:
± gives the uncertainty stated by the source.

Experiment: amyloid nucleation score (Sup35N fusion, yeast selection) (log enrichment); library NNK2; higher = more nucleation; inactive = no reads after selection
How it was run: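 Nucleation score: DiMSum log enrichment of output over input reads, centred on the mode score of non-aggregating sequences. Only sequences with at least 100 input reads were kept. Reads came from Illumina sequencing of plasmid inserts before and after 7 days of growth at 30°C without adenine and uracil, in psi-negative yeast expressing Sup35N fused to peptides of 20 random codons after 24 hours of induction with 100 μM copper sulfate.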

Substance | amyloid nucleation score
KLWAPWYNLWLFALTIVCDI | 0.343 ± 0.64
KNCFMIV | -2.26 ± 1
KNDFLNM | inactive
KNDGEVMKSVFKDRHCCART | -0.565 ± 0.48
KNKQRYSPIITLLVTKSVAF | 2.67 ± 0.056
KNLVDWVYYPPMH | -1.23 ± 0.62
KPFELEIRGKGQRHVEVV | 1.61 ± 0.26
KPHRIENGSTREDEEG | 0.747 ± 0.31
KQEHSYYNLDDLGHRGSEGA | -0.536 ± 1.1
KRGKMHYCKFAHAAITVTQL | -0.515 ± 0.43
KRIIFALL | -0.337 ± 0.48
KRILQMDHRLLNHNSELLKR | -0.397 ± 0.45
KRINCPKFSNGQYGLS | inactive
KRRSLGLLISLVTMGDK | 0.917 ± 0.31
KRSMKESWVYNLCNRVYCKG | 0.467 ± 0.8
KRVFAKVTVMDHSNSG | inactive
KRWIT | -0.65 ± 0.55
KSAQEF | 0.839 ± 0.43
KSCGRLAAEYSPPRMACGHD | 1.18 ± 0.41
KSEAGYA | 0.658 ± 0.51
KSEVWSYLI | 4.51 ± 0.061
KSFSCVCPWFGH | 10.32 ± 0.031
KSLNDDVKLKNKGSSPSAPW | inactive
KSMKEFSKFVLMSAP | 0.192 ± 0.46
KSQILACYNQLP | 0.83 ± 0.48
KSRFML | 0.627 ± 0.57

Substance | amyloid nucleation score
KSRPSTV | -1.68 ± 1
KSRVVMRTHAHSALWKWPGR | 1.64 ± 0.28
KSSVELWTFERA | 1.14 ± 0.33
KSTGDCFLKMINYYCGWS | 6.066 ± 0.052
KSVASVMVYYALRIPYHIEC | inactive
KSYMARMWYMVRLMLTCLDY | 0.741 ± 0.47
KTAVSNVRCMY | -0.227 ± 0.62
KTIVSYV | inactive
KTLRCQRMVGYWGIRVDLGR | 1.31 ± 0.42
KTNVMERCHFQRILCFGMW | inactive
KTYGGLLSLPVVLRMLEPRA | 0.319 ± 0.61
KVALL | -0.257 ± 0.76
KVELYYWVSTLSVCSLALYS | 6.07 ± 0.084
KVISSVSEPLSKKEDYE | -0.706 ± 0.3
KVKGLILDHDYRFRI | inactive
KVKSLYLSMVQGWMFYV | -0.425 ± 0.24
KVPDKGEKLCSLLAFGYQG | 0.736 ± 0.8
KVSWEDSFLFLCQCRRDCTL | 8.707 ± 0.039
KVTARPFRQC | 4.997 ± 0.045
KVVCLMVISCCLPLAPHRGW | 3.53 ± 0.11
KVVGGLVLHGSL | inactive
KVYATVDFDLLGQAPTSAMN | 4.83 ± 0.091
KWMLHSVR | 0.772 ± 0.22
KYFVTNRVVWTDRVSIFGV | 1.07 ± 0.53
KYMRLSSPAGSAVPLWTLYL | 0.148 ± 1
KYRCLLRATPFDKEVGSTRF | -0.753 ± 1

Substance | amyloid nucleation score
KYVSCNLLIGWYTLFSFYPF | -0.649 ± 0.4
KYWFDGYLGYF | -1.14 ± 0.29
LAAVLVHAWFVKRLRMPNHH | 0.93 ± 0.44
LACTKQFQVAVVFPDYTFIA | 3.71 ± 0.064
LAFAILFPFGSLRDGST | 0.585 ± 0.8
LAFFGVLSSFYSRFGIKTKM | -1.83 ± 0.54
LAFMRLPAVVLSSTLSFMKS | 0.789 ± 0.66
LAHHMF | 0.429 ± 0.8
LAIVLRGNFTIVSTAIE | 3.26 ± 0.1
LALFALMLLLF | -0.055 ± 0.26
LAMEWSRCRTGPL | 1.68 ± 0.15
LARASKHCSEVLGDCLA | 0.366 ± 0.8
LARCGPKLW | 3.43 ± 0.07
LARYFAKKLYNFYFLAFTGW | 1.14 ± 0.29
LASMMPSKIPN | inactive
LATKMSRGYSIRDWS | 0.052 ± 0.24
LAVKRMFSNFIFKAGTRNIW | inactive
LAYLSLICFCVDSPTQVGLM | 10.11 ± 0.038
LCAGGVGRRWLVLDTAECDG | 0.59 ± 0.64
LCCLMDFMITNLITFQRMTS | 4.33 ± 0.11
LCEEICLDFFMVRMFKHASY | 1.63 ± 0.11
LCGNRGFYDH | -0.177 ± 0.54
LCIEMD | 0.566 ± 0.38
LCPYR | -0.776 ± 1.1
LCSCANCLYSFFTG | 8.04 ± 0.023
LCWFAMLEYVWDGHAVGDSI | 4.06 ± 0.061

Substance | amyloid nucleation score
LCWFSNRSRLEEVS | inactive
LCYFCISGDRHSLEVKTLVT | -0.527 ± 0.4
LCYWCTCR | 0.141 ± 0.41
LCYWPYDSVYLLTRFTVNGF | -0.349 ± 0.25
LDEPRM | 0.16 ± 0.24
LDGFLLSISLRINKRLSSGR | 4.79 ± 0.061
LDIITGLSSISGTHIFGSSP | -0.627 ± 0.78
LDINIFM | -0.304 ± 1.1
LDLSDHWACQIIGVL | 0.394 ± 0.43
LDMITTINS | -1.6 ± 0.54
LDRDVVYTCVDCVFGVGILK | -1.19 ± 0.75
LDRSRTKSWLGDFWG | -0.074 ± 0.46
LDRYLG | 0.064 ± 0.3
LDSGHNGDVNGG | -0.45 ± 0.64
LDSVQWNGCMIRYSYLGMGW | -0.138 ± 0.3
LDSWRPN | -0.393 ± 0.39
LDVAGKVKASHKLRAWVWFS | 0.436 ± 0.8
LDVTHN | 0.6 ± 0.35
LDVVWSRVVRCRCVSWGNSL | 0.054 ± 0.65
LDYRPCEDNDDVDVSEILHG | 0.224 ± 0.25
LECRLC | 0.308 ± 0.25
LECVT | 0.078 ± 0.74
LEGFTRA | -0.909 ± 0.36
LEGMFLPGFFSCVRFLWL | -1.51 ± 0.78
LELHGT | -1.22 ± 0.45
LELKFFHHPSPCFYNITQSA | 3.76 ± 0.092

Substance | amyloid nucleation score
LELLSLIFSFG | 2.13 ± 0.18
LELMEYPL | -0.153 ± 0.45
LEMFYRVPLPRCKTYLQFRC | 0.471 ± 0.62
LENWSNMGENCSTVDRPNLF | -0.4 ± 1.1
LETGNRRHTEYLCYDVWVIL | 0.394 ± 0.39
LEWLFA | 0.155 ± 1.1
LFCTFKLRAMTFTSNKSRVV | 1.04 ± 0.43
LFDSCSDSRMFNWMGPSNGQ | inactive
LFDVMIQTRCLYHWNSPHNL | 5.14 ± 0.065
LFEFSFITPYGV | -0.531 ± 0.44
LFEMC | 0.443 ± 0.26
LFFFSGRWKVNGGIVDGCGV | 0.166 ± 0.45
LFGTNFYVQDNIVKGRVLIM | inactive
LFIDDVPVDSITYGIWARGC | -1.5 ± 1.1
LFIYLGDQSSNKVKPTHFRE | -0.497 ± 0.33
LFKFDVPTNIKCYIRSSCSI | inactive
LFKPLRNR | -0.918 ± 0.33
LFLSLTTQNWFNYNLPI | 7.32 ± 0.026
LFRRGKILACIYA | 0.016 ± 1.1
LFSMSL | -1.27 ± 1
LFSYWSVYSGLREVGPYCMV | 0.79 ± 0.21
LFTKRRW | 0.87 ± 0.46
LFVVTVTIMCYLSKEYVGLP | 0.039 ± 0.51
LFWGWITFTKECTNWGATIG | 0.895 ± 0.58
LFWHLHSNFIADVLLNVRLC | 1.13 ± 0.53
LFYKVFAYLFFVDVVCASKG | 4.97 ± 0.062

Substance | amyloid nucleation score
LGCMNDNMSNYYCGHR | -1.31 ± 0.55
LGDLFYYFTVRK | 0.389 ± 0.66
LGFIHSTG | inactive
LGFLAEELCMSMMGIVDVPE | inactive
LGHASSFCAYCRFDSM | 4.16 ± 0.068
LGICPFNGSLRS | -1.65 ± 1.1
LGIVDRTFQSMPYVGWMMV | 0.563 ± 0.36
LGLCLHLISSFRHRYAVLSR | -0.19 ± 0.3
LGNRVRMSWNW | 0.807 ± 0.44
LGPCSVIGQMVMYDRYGLLD | -0.313 ± 0.76
LGRLIWTRVSYCMSQINRVR | 2.23 ± 0.061
LGSVLLRFRH | -0.469 ± 0.23
LGSYVACPRDTKDYQNNSMC | -0.877 ± 0.48
LGTLGYTDAILWNYMSHCKG | inactive
LGTSRGNDVENRAYSRWVKV | 0.524 ± 0.81
LGVFWIDWPLLLGFRSRTGV | -0.393 ± 1.1
LHCRSCGF | -0.193 ± 0.43
LHIESRLRRSSQEKSN | 0.012 ± 0.45
LHILRA | 0.605 ± 0.47
LHLFIVGRKWSGDESAFLYA | 0.154 ± 0.5
LHSNCRV | 0.343 ± 0.8
LHSVMMLGGRIRPHPQVHSL | 0.471 ± 0.26
LHSYWH | 0.121 ± 0.2
LHVMYQTAMRAFAWNVTDLG | -0.032 ± 0.8
LIAFMRF | 5.688 ± 0.042
LIEFAFVQFCNIVIEP | 7.102 ± 0.031

Substance | amyloid nucleation score
LIEVQGSFYIVSALIGYRCG | 0.414 ± 0.21
LIGIARSRVYRVKECFVHGL | 0.519 ± 0.43
LIHLNNAMIEHCMFEVRSFG | -0.016 ± 0.26
LIIFTGYRCSLPFMSFF | -0.945 ± 1
LILRSVSNYAITIMFAFDTR | 4.39 ± 0.096
LIQRVRGCWTSYVYGGVWSR | 1.66 ± 0.34
LIQVAFQLYATVQVTVKTDV | 2.09 ± 0.26
LIRFYEIFSW | -0.237 ± 1
LIRKFRVVVMFSYVQVLPVI | 0.173 ± 1.1
LISATPQSSFHHFEMNSGSH | 0.275 ± 0.23
LISKSGSFMNMLGTGDRAR | 0.005 ± 1
LIVSAALRYNKDLLWIS | -0.004 ± 0.39
LIVSKWVHLWGYNALDNKEK | -1.65 ± 0.62
LIYNVDSVMNFVRVDNYDSP | 6.88 ± 0.087
LKAQRFWTNNLSLEANSHRK | -0.573 ± 1.1
LKCVHCYIRHLNFYFILPLC | inactive
LKEDF | inactive
LKGGIFRV | inactive
LKMCYFLRNKPTQMHVSGVY | 0.04 ± 0.5
LKMSHIYCSIIITAYLNWLV | inactive
